Assay results taken from the supplement of paper PMC7877785.
± gives the uncertainty stated by the source.

Test: self-splicing fitness, log relative to wild type (ln ratio); higher = more splicing; Tetrahymena group I intron in knt gene, E. coli kanamycin selection, DiMSum; sequences stand for … in CUCUCU…GGAGGGAAAAGUUAUCAGGCAUGCACCUGGUAGCUAGUCUUUAAACCAAUAGAUUGCAUCGGUUUAAAAGGCAAGACCGUCAAAUUGCGGGAAAGGGGUCAACAGCCGUUCAGUACCAAGUCUCAGGGGAAACUUUGAGAUGGCCUUGCAAAGGGUAUGGUAAUAAGCUGACGGACAUGGUCCUAACCACGCAGCCAAGUCCUAAGUCAACAGAUCUUCUGUUGAUAUGGAUGCAGUUCACAGACUAAAUGUCGGUCGGGGAAGAUGUAUUCUUCUCAUAAGAUAUAGUCGGACCUCUCCUUAAUGGGAGCUAGCGGAUGAAGUGAUGCAACACUGGAGCCGCUGGGAACUAAUUUGUAUGCGAAAGUAUAUUGAUUAGUUUUGGAGUACUCGUGGUCG
Procedure, shortened: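 The eight P1ex-region nucleotides of an intron in the knt kanamycin-resistance gene on pET-22b(+) were all randomised and the library put into E. coli BL21(DE3). Six replicate transformations were grown overnight at 37°C or 30°C on LB agar with or without 25 μg/mL kanamycin, together with 100 μg/mL carbenicillin, 50 μM IPTG and 0.2% rhamnose. Colonies were pooled and amplicon-sequenced on an Illumina HiSeq 2500. Fitness from DiMSum is the error-weighted combination of wild-type-normalised replicate fold changes, kanamycin over none.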

Row | Sequence | self-splicing fitness (ln) (30 °C) | self-splicing fitness (ln) (37 °C)
1 | GUUAAGCAAUAUUACGUUAC | -2.36 ± 0.19 | -1.33 ± 0.15
2 | AGUAAGCAAUAUUACGGCGA | -0.491 ± 0.12 | 0.468 ± 0.17
3 | GCCCAGCAAUAUUACGAGAC | -2.15 ± 0.093 | -0.787 ± 0.085
4 | AUAAAGCAAUAUUACGAGGA | -3.28 ± 0.23 | -1.74 ± 0.19
5 | GUAGAGCAAUAUUACGGGAC | -1.46 ± 0.2 | -1.13 ± 0.15
6 | UCAGAGCAAUAUUACGAUUU | -3.82 ± 0.3 | -1.67 ± 0.22
7 | AGCCAGCAAUAUUACGGGUU | -3.25 ± 0.15 | -3.81 ± 0.25
8 | CAGAAGCAAUAUUACGUUAU | -3.44 ± 0.35 | -2.75 ± 0.28
9 | GGUGAGCAAUAUUACGGAAU | -2.53 ± 0.39 | 0.428 ± 0.28
10 | GUUCAGCAAUAUUACGAAAU | -0.0391 ± 0.068 | 0.236 ± 0.12
11 | AGUAAGCAAUAUUACGAGUA | -2.91 ± 0.26 | -0.922 ± 0.16
12 | CUUCAGCAAUAUUACGCCUU | -2.35 ± 0.15 | -3.25 ± 0.25
13 | CGUGAGCAAUAUUACGUCCC | – | -1.09 ± 0.42
14 | CUUAAGCAAUAUUACGCGAG | -4.13 ± 0.34 | -3.57 ± 0.33
15 | CCGCAGCAAUAUUACGGUCG | -0.439 ± 0.053 | 0.0144 ± 0.066
16 | UUCCAGCAAUAUUACGAAGC | -2.59 ± 0.32 | -1.92 ± 0.26
17 | UGAAAGCAAUAUUACGAGCU | -1.42 ± 0.14 | -0.746 ± 0.17
18 | UGCCAGCAAUAUUACGAAAU | -2.86 ± 0.2 | -1.81 ± 0.17
19 | CAAAAGCAAUAUUACGCUAG | -3.12 ± 0.12 | -2.26 ± 0.14

Row | Sequence | self-splicing fitness (ln) (30 °C) | self-splicing fitness (ln) (37 °C)
20 | CUGGAGCAAUAUUACGUUUA | -3.17 ± 0.18 | -3.28 ± 0.22
21 | AGCCAGCAAUAUUACGCCUU | -1.59 ± 0.16 | -0.556 ± 0.2
22 | GUGCAGCAAUAUUACGACUG | -4.5 ± 0.39 | -2.84 ± 0.28
23 | UAGAAGCAAUAUUACGUAGU | -3.71 ± 0.25 | -2.01 ± 0.22
24 | CUAGAGCAAUAUUACGCCAA | -0.987 ± 0.2 | -2.54 ± 0.41
25 | GACGAGCAAUAUUACGCUCC | -2.9 ± 0.29 | -1.91 ± 0.34
26 | CGGUAGCAAUAUUACGAGGG | -3.72 ± 0.36 | -2.96 ± 0.25
27 | AAUGAGCAAUAUUACGGCAC | -2.9 ± 0.28 | -1.27 ± 0.32
28 | AAGCAGCAAUAUUACGAUGG | -2.99 ± 0.13 | -1.84 ± 0.14
29 | UUGCAGCAAUAUUACGUUGG | -2.68 ± 0.15 | -2.42 ± 0.18
30 | CUAGAGCAAUAUUACGGGUG | 0.162 ± 0.073 | -0.643 ± 0.082
31 | GCGCAGCAAUAUUACGAGGA | -1.89 ± 0.3 | -0.618 ± 0.16
32 | UGCUAGCAAUAUUACGAAUU | -4.43 ± 0.41 | -1.98 ± 0.17
33 | AUUAAGCAAUAUUACGUCCC | -0.338 ± 0.18 | 0.486 ± 0.23
34 | UGAAAGCAAUAUUACGGGUU | -4.06 ± 0.27 | -2.06 ± 0.19
35 | CUAGAGCAAUAUUACGAUUC | -2.96 ± 0.29 | -2.75 ± 0.48
36 | GACAAGCAAUAUUACGAACC | -1.06 ± 0.14 | -0.514 ± 0.17
37 | AAUUAGCAAUAUUACGAUCC | -0.705 ± 0.18 | -0.148 ± 0.26
38 | ACGAAGCAAUAUUACGCCCU | -0.468 ± 0.1 | 0.19 ± 0.12
